Experimental data: patent US20210238298A1 (ALLIGATOR BIOSCIENCE, published 2021)

Legend:
[1] = target: T1, recombinant human CD137-Fc (R&D #838-4B) (human, UniProt Q07011 24-186); test: SPR (summary table); column headed ka (1/s)
T1 construct: Bought; also called Human CD137 (R&D systems); CD137 (R&D Systems); not shown: Fc part, not described

[2] = target: T2, extracellular part of cynomolgus CD137 fused to the transmembrane and intracellular part of hCD40, on CHO … (cynomolgus (Macaca fascicularis); human, UniProt A9YYE7 24-186; P25942 194-277); test: flow cytometry, CHO cells; against human CD137
T2 construct: extracellular domain;domain: transmembrane and intracellular part; also called CHO-cyCD137; cyno CD137
Procedure: (§1) Binding and EC50 to human and cynomolgus (Macaca fascicularis) CD137 was determined using flow cytometry of CHO cells transfected with human CD137, cynomolgus CD137 or empty vector. The extracellular part of human or cynomolgus CD137 was fused to the transmembrane and intracellular part of human CD40 and cloned into pcDNA3.0. The vector was subsequently stably transfected into CHO cells. […] CD137-transfected and empty vector-transfected cells were incubated with CD137 antibodies for at least 1h at 4° C. to saturate the binding. In order to minimize antibody internalization, 0.05% sodium azide was used in the incubation buffer and all work was performed on ice. […] Directly after staining the cells were fixed with a paraformaldehyde solution (10× concentrate BD CellFIX, BD biosciences #340181). Cells were analyzed by flow cytometry using FACSVerse (BD Biosciences). The median fluorescence intensity (MFI) for each sample was determined and the dose response data was analysed using Graph Pad Prism.
(§2) MFI data was normalized for each antibody, where 0% is defined as the lowest value and 100% is the highest value in the dose titration for each antibody.

[3] = target: CD137 on primary human CD8+ T cells (human, UniProt Q07011 24-255); test: cell-based or functional assay
[4] = target: construct 1030: full length human CD137, on FreeStyle 293-F cells (human, UniProt Q07011 24-255); test: flow cytometry, 293-F transfectants
[5] = target: T3, CD137 chimera 1555 (1412): human CD137 with mouse domains 1 and 4B and region of unknown function (aa 24-46 … (human; mouse, UniProt P20334 24-45; P20334 139-185); test: flow cytometry, 293-F transfectants
T3 construct: domain: 1;domain: 4B and region of unknown function

[6] = target: T4, CD137 chimera 1552 (1409): human CD137 with mouse domains 2B, 3A and 3B (aa 64-118), on FreeStyle 293-F cells (human; mouse, UniProt P20334 63-117); test: flow cytometry, 293-F transfectants
T4 construct: domain: 2B, 3A and 3B

[7] = target: T5, CD137 chimera 1553 (1410): human CD137 with mouse domains 3A, 3B and 4A (aa 87-133), on FreeStyle 293-F cells (human; mouse, UniProt P20334 86-133); test: flow cytometry, 293-F transfectants
T5 construct: domain: 3A, 3B and 4A

[8] = target: T6, CD137 chimera 1554 (1411): human CD137 with mouse domains 3B, 4A and 4B (aa 97-159), on FreeStyle 293-F cells (human; mouse, UniProt P20334 96-159); test: flow cytometry, 293-F transfectants
T6 construct: domain: 3B, 4A and 4B

[9] = target: T7, CD137 chimera 1551 (1408): human CD137 with mouse domains 2A, 2B and 3A (aa 47-96), on FreeStyle 293-F cells (human; mouse, UniProt P20334 46-95); test: flow cytometry, 293-F transfectants
T7 construct: domain: 2A, 2B and 3A

[10] = target: T8, CD137 chimera 1550 (1407): human CD137 with mouse domains 1, 2A and 2B (aa 24-86), on FreeStyle 293-F cells (human; mouse, UniProt P20334 24-85); test: flow cytometry, 293-F transfectants
T8 construct: domain: 1, 2A and 2B

[11] = target: T9, extracellular part of human CD137 fused to the transmembrane and intracellular part of hCD40, on CHO cells (human, UniProt P25942 194-277, limits assumed); test: flow cytometry, CHO cells; 95% confidence interval
T9 construct: domain: transmembrane and intracellular part; also called CHO-huCD137; human CD137 over-expressed on CHO cells
Procedure: as §1, §2

[12] = target: T2, extracellular part of cynomolgus CD137 …; test: flow cytometry, CHO cells; 95% confidence interval
Procedure: as §1, §2

[13] = target: T1, recombinant human CD137-Fc (R&D #838-4B); test: SPR (summary table)
[14] = target: T1, recombinant human CD137-Fc (R&D #838-4B); test: SPR (Biacore), immobilised human CD137, bivalent antibody in flow
Procedure: Human CD137 (R&D systems) was immobilized to the Biacore™ sensorchip, CM5, using conventional amine coupling. The tested antibody and control (serially diluted ½ 10-0.63 nM) were analyzed for binding in HBS-P (GE, #BR-1003-68) at a flow rate of […]. The association was followed for 5 minutes and the dissociation for 15 minutes. Regeneration was performed twice using 10 mM Glycine pH 1.7 for 30 seconds. The kinetic parameters and the affinity constants were calculated using 1:1 Langmuir model.

[15] = target: T1, recombinant human CD137-Fc (R&D #838-4B); test: ELISA, coated CD137-Fc; mean
CD40 (Ancell) = target: T10, CD40 (Ancell) (UniProt P25942 21-193); test: ELISA, coated CD40-Fc
T10 construct: also called CD40-Fc (Ancell #504-820); not shown: Fc part, not described
Procedure: (§3) ELISA plates (Greiner #655074) were coated with 50 μl/well of recombinant human OX40 (R&D #1493-CD), CD40-Fc (Ancell #504-820) or CD137 (R&D #838-4B) diluted to a final concentration of 0.5 μg/ml in PBS for 1 h at 37° C. or overnight at 4° C. Plates were washed with PBS+0.05% TWEEN20 (PBST), followed by block with PBST+1% bovine serum albumin (BSA). Antibody samples were prepared as serial 1/10 dilutions from 10-0.01 μg/ml in PBST+1% BSA and incubated for 1h in room temperature, followed by detection using a horse radish peroxidase-conjugated anti-human kappa light chain antibody (AbD Serotec #STAR127P) and developed using SuperSignal ELISA Pico Chemiluminescent substrate (Pierce ThermoScientific #37069).

[16] = target: T11, Human OX40 (R&D systems, #3358_OX) (human, UniProt P43489 29-216); test: ELISA, coated recombinant human OX40
T11 construct: Bought; Several catalogue numbers are given for it; also called human OX40 (R&D Systems, 3388-OX); OX40-Fc (R&D systems, #3358_OX); not shown: Fc part
T11 sequence: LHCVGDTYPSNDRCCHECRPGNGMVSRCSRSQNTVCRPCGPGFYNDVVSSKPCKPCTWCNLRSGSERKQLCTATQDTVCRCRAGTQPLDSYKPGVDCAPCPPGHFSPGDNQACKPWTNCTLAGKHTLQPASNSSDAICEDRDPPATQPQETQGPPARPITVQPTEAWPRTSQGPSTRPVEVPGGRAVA
Procedure: as §3

[17] = target: T9, extracellular part of human CD137 fused …; test: flow cytometry, CHO transfectants (summary table)

T1 sequence (Q07011 24-186 limits assumed): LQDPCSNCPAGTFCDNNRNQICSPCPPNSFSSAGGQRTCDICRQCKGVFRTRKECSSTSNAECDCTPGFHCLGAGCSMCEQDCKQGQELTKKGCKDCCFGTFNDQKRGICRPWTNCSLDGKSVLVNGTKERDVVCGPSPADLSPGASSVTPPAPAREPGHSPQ
Sequence of CD137 on primary human CD8+ T cells (Q07011 24-255 limits assumed): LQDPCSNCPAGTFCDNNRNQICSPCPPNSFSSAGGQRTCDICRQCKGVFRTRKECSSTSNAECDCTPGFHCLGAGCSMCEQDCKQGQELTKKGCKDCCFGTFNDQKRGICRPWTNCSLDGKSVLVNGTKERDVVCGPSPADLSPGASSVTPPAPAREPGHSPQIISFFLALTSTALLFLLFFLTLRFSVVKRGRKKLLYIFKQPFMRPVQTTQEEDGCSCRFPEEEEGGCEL
T9 sequence (P25942 other isoform, or with tags, fused parts or gaps limits assumed): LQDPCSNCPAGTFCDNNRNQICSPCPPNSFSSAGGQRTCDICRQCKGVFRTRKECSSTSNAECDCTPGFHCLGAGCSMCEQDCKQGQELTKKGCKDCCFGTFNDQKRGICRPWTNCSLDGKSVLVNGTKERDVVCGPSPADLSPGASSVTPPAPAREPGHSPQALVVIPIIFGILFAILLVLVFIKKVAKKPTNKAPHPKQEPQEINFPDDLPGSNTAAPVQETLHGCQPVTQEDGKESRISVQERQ
T2 sequence (P25942 other isoform, or with tags, fused parts or gaps): as the sequence (P25942 other isoform, or with tags, fused parts or gaps limits assumed) above, with P4L, N19S, R50K, T66I, P67S, F69Y, G75E, V149A counted along it
Sequence of construct 1030: full length human CD137, on FreeStyle 293-F cells (Q07011 24-255 limits assumed): as the sequence (Q07011 24-255 limits assumed) above
T7 sequence (P20334 other isoform, or with tags, fused parts or gaps mutant limits assumed): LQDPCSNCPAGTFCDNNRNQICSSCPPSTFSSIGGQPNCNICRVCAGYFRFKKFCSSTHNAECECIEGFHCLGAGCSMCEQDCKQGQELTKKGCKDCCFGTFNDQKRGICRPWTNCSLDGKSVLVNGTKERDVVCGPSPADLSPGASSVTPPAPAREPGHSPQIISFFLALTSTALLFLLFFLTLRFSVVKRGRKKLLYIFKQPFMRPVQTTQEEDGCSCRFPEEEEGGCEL
T3 sequence (P20334 other isoform, or with tags, fused parts or gaps mutant limits assumed): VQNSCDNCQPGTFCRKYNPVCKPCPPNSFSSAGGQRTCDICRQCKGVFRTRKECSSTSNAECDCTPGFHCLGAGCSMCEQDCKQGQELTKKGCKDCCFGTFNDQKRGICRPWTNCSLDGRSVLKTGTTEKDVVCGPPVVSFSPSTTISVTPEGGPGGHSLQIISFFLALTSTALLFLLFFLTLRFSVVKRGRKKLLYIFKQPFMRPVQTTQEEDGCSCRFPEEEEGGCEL
T5 sequence (P20334 other isoform, or with tags, fused parts or gaps mutant limits assumed): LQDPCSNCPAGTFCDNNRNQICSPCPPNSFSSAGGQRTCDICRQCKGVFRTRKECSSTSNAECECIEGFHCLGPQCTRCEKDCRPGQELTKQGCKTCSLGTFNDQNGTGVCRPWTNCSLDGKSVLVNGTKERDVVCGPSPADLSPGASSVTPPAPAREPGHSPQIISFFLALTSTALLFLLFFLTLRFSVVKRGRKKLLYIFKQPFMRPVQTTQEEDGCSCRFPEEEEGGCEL
T6 sequence (P20334 other isoform, or with tags, fused parts or gaps mutant limits assumed): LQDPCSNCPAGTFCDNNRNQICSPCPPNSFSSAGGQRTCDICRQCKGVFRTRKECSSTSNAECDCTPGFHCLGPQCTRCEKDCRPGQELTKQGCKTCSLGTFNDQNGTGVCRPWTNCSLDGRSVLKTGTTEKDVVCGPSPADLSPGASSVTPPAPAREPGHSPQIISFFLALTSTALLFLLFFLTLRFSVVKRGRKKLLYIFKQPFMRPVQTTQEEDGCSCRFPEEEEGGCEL
T10 sequence (P25942 21-193 limits assumed): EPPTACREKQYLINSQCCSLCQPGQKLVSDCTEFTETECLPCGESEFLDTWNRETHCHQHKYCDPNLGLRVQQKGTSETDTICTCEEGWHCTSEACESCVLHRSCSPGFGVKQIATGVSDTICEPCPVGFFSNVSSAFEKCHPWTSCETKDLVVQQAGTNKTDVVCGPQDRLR
T8 sequence (P20334 other isoform, or with tags, fused parts or gaps mutant limits assumed): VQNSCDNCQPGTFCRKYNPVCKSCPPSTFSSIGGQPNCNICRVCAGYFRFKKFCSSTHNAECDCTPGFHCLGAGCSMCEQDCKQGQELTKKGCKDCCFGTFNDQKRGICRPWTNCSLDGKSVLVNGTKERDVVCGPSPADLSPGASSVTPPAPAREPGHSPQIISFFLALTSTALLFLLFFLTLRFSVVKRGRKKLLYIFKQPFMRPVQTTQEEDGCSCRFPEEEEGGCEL
T4 sequence (P20334 other isoform, or with tags, fused parts or gaps mutant limits assumed): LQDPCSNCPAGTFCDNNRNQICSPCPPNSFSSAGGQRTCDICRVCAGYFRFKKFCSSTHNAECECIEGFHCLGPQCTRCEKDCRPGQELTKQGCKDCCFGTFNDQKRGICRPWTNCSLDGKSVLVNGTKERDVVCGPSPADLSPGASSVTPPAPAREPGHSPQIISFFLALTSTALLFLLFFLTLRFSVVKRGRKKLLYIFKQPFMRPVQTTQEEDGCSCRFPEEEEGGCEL

B1: anti-CD137 antibody 1618/1619 (antibody, IgG1, V domains shown)
VH: EVQLLESGGGLVQPGGSLRLSCAASGFTFSYGSMYWVRQAPGKGLEWVSSISSGSGSTYYADSVKGRFTISRDNSKNTLYLQMNSLRAEDTAVYYCARSSYYGSYYSIDYWGQGTLVTVSS
VL: DIQMTQSPSSLSASVGDRVTITCRASQSISSYLNWYQQKPGKAPKLLIYAASSLQSGVPSRFSGSGSGTDFTLTISSLQPEDFATYYCQQYYDNLPTFGQGTKLEIK
notes: Produced as IgG; also called 1618-bio
Question: With B1 as the binder, how does the koff [1] read?
Answer: 0.0001 s⁻¹

Question: And the “Ratio, cyno:human (EC50)” value [2]?
Answer: 0.77

Question: And the “Max IFN-γ” value [3]?
Answer: 111000 pg/mL

Question: And the “Mean IFN-γ” value [3]?
Answer: 33600 pg/mL

Question: And the “Min IFN-γ” value [3]?
Answer: 7380 pg/mL

Question: What about the “relative binding (MFI sample/isotype control, normalised to full-length human CD137)” value [4] of the same binder?
Answer: 1

Question: What about the “relative binding (MFI sample/isotype control, normalised to full-length human CD137)” value [5] of the same binder?
Answer: 0.12

Question: And the “relative binding (MFI sample/isotype control, normalised to full-length human CD137)” value [6]?
Answer: 1.2

Question: And the “relative binding (MFI sample/isotype control, normalised to full-length human CD137)” value [7]?
Answer: 1.24

Question: What about the “relative binding (MFI sample/isotype control, normalised to full-length human CD137)” value [8] of the same binder?
Answer: 1.01

Question: And the “relative binding (MFI sample/isotype control, normalised to full-length human CD137)” value [9]?
Answer: 0.67

Question: And the “relative binding (MFI sample/isotype control, normalised to full-length human CD137)” value [10]?
Answer: 0.11

Question: What about the EC50 [11] of the same binder?
Answer: 0.11 to 0.19 µg/mL

Question: What about the EC50 [12] of the same binder?
Answer: 0.086 to 0.15 µg/mL

Question: What about the Kd [13] of the same binder?
Answer: 0.1 nM

Question: And the kon [13]?
Answer: 1e+06 M⁻¹ s⁻¹

Question: What about the Kd [14] of the same binder?
Answer: 0.107 nM

Question: What about the koff [14] of the same binder?
Answer: 0.00011 s⁻¹

Question: And the kon [14]?
Answer: 1.02e+06 M⁻¹ s⁻¹

Question: And the EC50 [15]?
Answer: 0.35 nM

Question: Does B1 bind (CD40 (Ancell))?
Answer: no binding (tested: 10 µg/ml)

Question: Does B1 bind [16]?
Answer: no binding (tested: 10 µg/ml)

Question: And the EC50 [17]?
Answer: 0.11 to 0.19 µg/mL
